From paper PMC3017675 (Journal of molecular biology, 2010) come the findings set out here.

Assay [1] addresses full-length Mycobacterium tuberculosis GroEL1 (M. tuberculosis H37Rv) (UniProt P9WPE9). Kind of assay: SEC.
Assay [2] concerns the target full-length M. tuberculosis GroEL2 (M. tuberculosis, UniProt P9WPE7 1-540). Kind of assay: peptide or protein array.

Sequence of full-length M. tuberculosis GroEL2 (P9WPE7 whole entry): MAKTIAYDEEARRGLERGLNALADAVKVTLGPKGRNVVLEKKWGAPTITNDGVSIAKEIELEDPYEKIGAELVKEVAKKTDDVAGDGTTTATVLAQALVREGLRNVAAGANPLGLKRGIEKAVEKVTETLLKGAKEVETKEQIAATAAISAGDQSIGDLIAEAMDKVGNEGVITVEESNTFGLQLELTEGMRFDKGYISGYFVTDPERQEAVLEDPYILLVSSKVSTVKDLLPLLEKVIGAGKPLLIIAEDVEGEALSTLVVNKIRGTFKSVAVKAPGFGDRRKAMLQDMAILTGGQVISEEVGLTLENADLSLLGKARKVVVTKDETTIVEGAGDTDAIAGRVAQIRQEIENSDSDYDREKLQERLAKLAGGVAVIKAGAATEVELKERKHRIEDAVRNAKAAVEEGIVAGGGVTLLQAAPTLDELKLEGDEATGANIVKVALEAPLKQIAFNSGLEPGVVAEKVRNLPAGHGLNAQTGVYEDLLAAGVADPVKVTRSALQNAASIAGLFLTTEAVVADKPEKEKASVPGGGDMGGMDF

What is called stoichiometry N is the number of molecules, sites or subunits per partner or assembly. As for “full-length Mycobacterium tuberculosis GroEL1 (from UniProt P9WPE9 1-539) (natural protein)”, the stoichiometry N in assay [1] stood at 2.

B1: KasA peptides Group H (spots F12-F17) (peptide)
peptide: APAADGVRAGRAMTRSLELAGL
For the molecule B1, in assay [2], the binding result was “binds”.

B2: KasA peptides Group G (spots F01-F04) (peptide)
peptide: RGAKPLARLLGAGITSDA
As for B2, in assay [2], the binding result was “binds”.

B3: KasA peptides Group I (spots G20-G24) (peptide)
peptide: AVGALESVLTVLTLRDGVIP
As for B3, in assay [2], the binding result is “binds”.

B4: KasA peptides Group A (spots A05-A08) (peptide)
peptide: GGFPSVVVTAVTATTSIS
Take B4: the binding result in assay [2] is on record as “binds”.
